This is an account of results in the supplement of paper PMC5998384.

Data set [1] relates to HeLa Kyoto. As to the kind of experiment: solubility in G1/S (NP-40 vs SDS abundance) (log2 ratio); higher = more soluble. Particulars: cell cycle stage: G1/S.
Data set [2] concerns HeLa Kyoto. As to the kind of experiment: solubility change mitosis vs G1/S (difference of NP-40 vs SDS log2 ratios) (log2 ratio difference); higher = more soluble in mitosis.
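Wherever solubility change mitosis vs G1/S (difference of NP-40 vs SDS log2 ratios) is given: synchronized HeLa Kyoto cells (double thymidine block for G1/S, nocodazole release for mitosis), protein amounts in NP-40 versus SDS lysates quantified by mass spectrometry, three biological replicates.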
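Wherever solubility in G1/S (NP-40 vs SDS abundance) is given: HeLa Kyoto cells arrested at G1/S by double thymidine block, proteins quantified by TMT10plex mass spectrometry in mild NP-40 versus SDS extracts, three biological replicates.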

As to “MAEAATGFLEQLKSCIVWSWTYLWTVWFFIVLFLVYILRVPLKINDNLSTVSMFLNTLTPKFYVALTGTSSLISGLILIFEWWYFRKYGTSFIEQVSVSHLRPLLGGVDNNSSNNSNSSNGDSDSNRQSVSECKVWRNPLNLFRGAEYNRYTWVTGREPLTYYDMNLSAQDHQTFFTCDSDHLRPADAIMQKAWRERNPQARISAAHEALEINEIRSRVEVPLIASSTIWEIKLLPKCATAYILLAEEEATTIAEAEKLFKQALKAGDGCYRRSQQLQHHGSQYEAQHRRDTNVLVYIKRRLAMCARRLGRTREAVKMMRDLMKEFPLLSMFNIHENLLEALLELQAYADVQAVLAKYDDISLPKSATICYTAALLKARAVSDKFSPEAASRRGLSTAEMNAVEAIHRAVEFNPHVPKYLLEMKSLILPPEHILKRGDSEAIAYAFFHLAHWKRVEGALNLLHCTWEGTFRMIPYPLEKGHLFYPYPICTETADRELLPSFHEVSVYPKKELPFFILFTAGLCSFTAMLALLTHQFPELMGVFAKAMIDIFCSAEFRDWNCKSIFMRVEDELEIPPAPQSQHFQN [ST7]”, in the data set with HeLa Kyoto [1], the “solubility in G1/S (log2)” value is -0.381. For the same sequence, in the data set with HeLa Kyoto [2], the “solubility change mitosis (log2)” value amounted to 0.0591.

“MAEAATPGTTATTSGAGAAAATAAAASPTPIPTVTAPSLGAGGGGGGSDGSGGGWTKQVTCRYFMHGVCKEGDNCRYSHDLSDSPYSVVCKYFQRGYCIYGDRCRYEHSKPLKQEEATATELTTKSSLAASSSLSSIVGPLVEMNTGEAESRNSNFATVGAGSEDWVNAIEFVPGQPYCGRTAPSCTEAPLQGSVTKEESEKEQTAVETKKQLCPYAAVGECRYGENCVYLHGDSCDMCGLQVLHPMDAAQRSQHIKSCIEAHEKDMELSFAVQRSKDMVCGICMEVVYEKANPSERRFGILSNCNHTYCLKCIRKWRSAKQFESKIIKSCPECRITSNFVIPSEYWVEEKEEKQKLILKYKEAMSNKACRYFDEGRGSCPFGGNCFYKHAYPDGRREEPQRQKVGTSSRYRAQRRNHFWELIEERENSNPFDNDEEEVVTFELGEMLLMLLAAGGDDELTDSEDEWDLFHDELEDFYDLDL [MKRN1]”: in the data set on HeLa Kyoto [1], the “solubility in G1/S (log2)” value worked out at 0.102. Besides, the “solubility change mitosis (log2)” value with HeLa Kyoto [2] is -0.322.

As for “MAEAGAGLSETVTETTVTVTTEPENRSLTIKLRKRKPEKKVEWTSDTVDNEHMGRRSSKCCCIYEKPRAFGESSTESDEEEEEGCGHTHCVRGHRKGRRRATLGPTPTTPPQPPDPSQPPPGPMQH [PPP1R11]”, the “solubility in G1/S (log2)” value in the data set with HeLa Kyoto [1] was -0.804. Besides, the “solubility change mitosis (log2)” value with HeLa Kyoto [2] is 0.00513.

Take “MAEASFGSSSPVGSLSSEDHDFDPTAEMLVHDYDDERTLEEEEMMDEGKNFSSEIEDLEKEGTMPLEDLLAFYGYEPTIPAVANSSANSSPSELADELPDMTLDKEEIAKDLLSGDDEETQSSADDLTPSVTSHETSDFFPRPLRSNTACDGDKESEVEDVETDSGNSPEDLRKEIMIGLQYQAEIPPYLGEYDGNEKVYENEDQLLWCPDVVLESKVKEYLVETSLRTGSEKIMDRISAGTHTRDNEQALYELLKCNHNIKEAIERYCCNGKASQEGMTAWTEEECRSFEHALMLFGKDFHLIQKNKVRTRTVAECVAFYYMWKKSERYDYFAQQTRFGKKRYNHHPGVTDYMDRLVDETEALGGTVNASALTSNRPEPIPDQQLNILNSFTASDLTALTNSVATVCDPTDVNCLDDSFPPLGNTPRGQVNHVPVVTEELLTLPSNGESDCFNLFETGFYHSELNPMNMCSEESERPAKRLKMGIAVPESFMNEVSVNNLGVDFENHTHHITSAKMAVSVADFGSLSANETNGFISAHALHQHAALHSE [MIER3]”: in the data set on HeLa Kyoto [1], the “solubility in G1/S (log2)” value is 0.163. The “solubility change mitosis (log2)” value in the data set on HeLa Kyoto [2] is -0.33.

In the case of “MAEASSLGRQSPRVVSCLEHSLCPGEPGLQTTAVVSMGSGDHQFNLAEILSQNYSVRGECEEASRCPDKPKEELEKDFISQSNDMPFDELLALYGYEASDPISDRESEGGDVAPNLPDMTLDKEQIAKDLLSGEEEEETQSSADDLTPSVTSHEASDLFPNRSGSRFLADEDREPGSSASSDTEEDSLPANKCKKEIMVGPQFQADLSNLHLNRHCEKIYENEDQLLWDPSVLPEREVEEFLYRAVKRRWHEMAGPQLPEGEAVKDSEQALYELVKCNFNVEEALRRLRFNVKVIRDGLCAWSEEECRNFEHGFRVHGKNFHLIQANKVRTRSVGECVEYYYLWKKSERYDYFAQQTRLGRRKYVPSGTTDADQDLDGSDPDGPGRPRPEQDTLTGMRTDPLSVDGTAGGLDEPGVASDGLPSSEPGPCSFQQLDESPAVPLSHRPPALADPASYQPAVTAPEPDASPRLAVDFALPKELPLISSHVDLSGDPEETVAPAQVALSVTEFGLIGIGDVNPFLAAHPTCPAPGLHSEPLSHCNVMTC [MIER2]”, in the data set on HeLa Kyoto [1], the “solubility in G1/S (log2)” value worked out at 0.172. The “solubility change mitosis (log2)” value in the data set on HeLa Kyoto [2] was -0.304.

“MAEGPEEARGHPPGQDDGGGDHEPVPSLRGPPTTAVPCPRDDPQAEPQAPGRPTAPGLAAAAAADKLEPPRELRKRGEAASGSGAELQEQAGCEAPEAAAPRERPARLSAREYSRQVHEWLWQSYCGYLTWHSGLAAFPAYCSPQPSPQSFPSGGAAVPQAAAPPPPQLGYYNPFYFLSPGAAGPDPRTAAGISTPAPVAGLGPRAPHVQASVRATPVTRVGSAAPSRSPSETGRQAGREYVIPSLAHRFMAEMVDFFILFFIKATIVLSIMHLSGIKDISKFAMHYIIEEIDEDTSMEDLQKMMVVALIYRLLVCFYEIICIWGAGGATPGKFLLGLRVVTCDTSVLIAPSRVLVIPSSNVSITTSTIRALIKNFSIASFFPAFITLLFFQHNRTAYDIVAGTIVVKRNGVR [FAM8A1]”: the “solubility in G1/S (log2)” value with HeLa Kyoto [1] is -0.0476. Further, the “solubility change mitosis (log2)” value with HeLa Kyoto [2] turned out to be 0.0402.

For “MAENLKGCSVCCKSSWNQLQDLCRLAKLSCPALGISKRNLYDFEVEYLCDYKKIREQEYYLVKWRGYPDSESTWEPRQNLKCVRILKQFHKDLERELLRRHHRSKTPRHLDPSLANYLVQKAKQRRALRRWEQELNAKRSHLGRITVENEVDLDGPPRAFVYINEYRVGEGITLNQVAVGCECQDCLWAPTGGCCPGASLHKFAYNDQGQVRLRAGLPIYECNSRCRCGYDCPNRVVQKGIRYDLCIFRTDDGRGWGVRTLEKIRKNSFVMEYVGEIITSEEAERRGQIYDRQGATYLFDLDYVEDVYTVDAAYYGNISHFVNHSCDPNLQVYNVFIDNLDERLPRIAFFATRTIRAGEELTFDYNMQVDPVDMESTRMDSNFGLAGLPGSPKKRVRIECKCGTESCRKYLF [SUV39H1]”, the “solubility in G1/S (log2)” value in the data set with HeLa Kyoto [1] is -0.773. Also, in the data set on HeLa Kyoto [2], the “solubility change mitosis (log2)” value is -0.415.

In the case of “MAEPSQAPTPAPAAQPRPLQSPAPAPTPTPAPSPASAPIPTPTPAPAPAPAAAPAGSTGTGGPGVGSGGAGSGGDPARPGLSQQQRASQRKAQVRGLPRAKKLEKLGVFSACKANETCKCNGWKNPKPPTAPRMDLQQPAANLSELCRSCEHPLADHVSHLENVSEDEINRLLGMVVDVENLFMSVHKEEDTDTKQVYFYLFKLLRKCILQMTRPVVEGSLGSPPFEKPNIEQGVLNFVQYKFSHLAPRERQTMFELSKMFLLCLNYWKLETPAQFRQRSQAEDVATYKVNYTRWLCYCHVPQSCDSLPRYETTHVFGRSLLRSIFTVTRRQLLEKFRVEKDKLVPEKRTLILTHFPKFLSMLEEEIYGANSPIWESGFTMPPSEGTQLVPRPASVSAAVVPSTPIFSPSMGGGSNSSLSLDSAGAEPMPGEKRTLPENLTLEDAKRLRVMGDIPMELVNEVMLTITDPAAMLGPETSLLSANAARDETARLEERRGIIEFHVIGNSLTPKANRRVLLWLVGLQNVFSHQLPRMPKEYIARLVFDPKHKTLALIKDGRVIGGICFRMFPTQGFTEIVFCAVTSNEQVKGYGTHLMNHLKEYHIKHNILYFLTYADEYAIGYFKKQGFSKDIKVPKSRYLGYIKDYEGATLMECELNPRIPYTELSHIIKKQKEIIKKLIERKQAQIRKVYPGLSCFKEGVRQIPVESVPGIRETGWKPLGKEKGKELKDPDQLYTTLKNLLAQIKSHPSAWPFMEPVKKSEAPDYYEVIRFPIDLKTMTERLRSRYYVTRKLFVADLQRVIANCREYNPPDSEYCRCASALEKFFYFKLKEGGLIDK [KAT2A]”, in the data set on HeLa Kyoto [1], the “solubility in G1/S (log2)” value amounted to 0.0904. In the data set on HeLa Kyoto [2], the “solubility change mitosis (log2)” value is -0.058.

With “MAETSPEPSGQLVVHSDAHSDTVLASFEDQRKKGFLCDITLIVENVHFRAHKALLAASSEYFSMMFAEEGEIGQSIYMLEGMVADTFGILLEFIYTGYLHASEKSTEQILATAQFLKVYDLVKAYTDFQNNHSSPKPTTLNTAGAPVVVISNKKNDPPKRKRGRPKKVNTLQEEKSELAAEEEIQLRVNNSVQNRQNFVVKGDSGVLNEQIAAKEKEESEPTCEPSREEEMPVEKDENYDPKTEDGQASQSRYSKRRIWRSVKLKDYKLVGDQEDHGSAKRICGRRKRPGGPEARCKDCGKVFKYNHFLAIHQRSHTGERPFKCNECGKGFAQKHSLQVHTRMHTGERPYTCTVCSKALTTKHSLLEHMSLHSGQKSFTCDQCGKYFSQNRQLKSHYRVHTGHSLPECKDCHRKFMDVSQLKKHLRTHTGEKPFTCEICGKSFTAKSSLQTHIRIHRGEKPYSCGICGKSFSDSSAKRRHCILHTGKKPFSCPECNLQFARLDNLKAHLKIHSKEKHASDASSISGSSNTEEVRNILQLQPYQLSTSGEQEIQLLVTDSVHNINFMPGPSQGISIVTAESSQNMTADQAANLTLLTQQPEQLQNLILSAQQEQTEHIQSLNMIESQMGPSQTEPVHVITLSKETLEHLHAHQEQTEELHLATSTSDPAQHLQLTQEPGPPPPTHHVPQPTPLGQEQS [ZBTB24]”, in the data set with HeLa Kyoto [1], the “solubility in G1/S (log2)” value was -0.495. In addition, the “solubility change mitosis (log2)” value in the data set with HeLa Kyoto [2] was found to be 0.142.

In the case of “MAGAGRGAAVSRVQAGPGSPRRARGRQQVQPLGKQRPAPWPGLRSKEKKKVNCKPKNQDEQEIPFRLREIMRSRQEMKNPISNKKRKKAAQVTFRKTLEKEAKGEEPDIAVPKFKQRKGESDGAYIHRMQQEAQHVLFLSKNQAIRQPEVQAAPKEKSEQKKAKKAFQKRRLDKVRRKKEEKAADRLEQELLRDTVKFGEVVLQPPELTARPQRSVSKDQPGRRSQMLRMLLSPGGVSQPLTASLARQRIVEEERERAVQAYRALKQRQQQLHGERPHLTSRKKPEPQL [CCDC137]”, in the data set with HeLa Kyoto [1], the “solubility in G1/S (log2)” value was -1.04. Further, in the data set on HeLa Kyoto [2], the “solubility change mitosis (log2)” value was 0.83.

Turning to “MAGALVRKAADYVRSKDFRDYLMSTHFWGPVANWGLPIAAINDMKKSPEIISGRMTFALCCYSLTFMRFAYKVQPRNWLLFACHATNEVAQLIQGGRLIKHEMTKTASA [MPC1]”, in the data set with HeLa Kyoto [1], the “solubility in G1/S (log2)” value is -0.461. In the data set with HeLa Kyoto [2], the “solubility change mitosis (log2)” value was -0.165.

For “MAGGPGPGEPAAPGAQHFLYEVPPWVMCRFYKVMDALEPADWCQFAALIVRDQTELRLCERSGQRTASVLWPWINRNARVADLVHILTHLQLLRARDIITAWHPPAPLPSPGTTAPRPSSIPAPAEAEAWSPRKLPSSASTFLSPAFPGSQTHSGPELGLVPSPASLWPPPPSPAPSSTKPGPESSVSLLQGARPFPFCWPLCEISRGTHNFSEELKIGEGGFGCVYRAVMRNTVYAVKRLKENADLEWTAVKQSFLTEVEQLSRFRHPNIVDFAGYCAQNGFYCLVYGFLPNGSLEDRLHCQTQACPPLSWPQRLDILLGTARAIQFLHQDSPSLIHGDIKSSNVLLDERLTPKLGDFGLARFSRFAGSSPSQSSMVARTQTVRGTLAYLPEEYIKTGRLAVDTDTFSFGVVVLETLAGQRAVKTHGARTKYLKDLVEEEAEEAGVALRSTQSTLQAGLAADAWAAPIAMQIYKKHLDPRPGPCPPELGLGLGQLACCCLHRRAKRRPPMTQVYERLEKLQAVVAGVPGHSEAASCIPPSPQENSYVSSTGRAHSGAAPWQPLAAPSGASAQAAEQLQRGPNQPVESDESLGGLSAALRSWHLTPSCPLDPAPLREAGCPQGDTAGESSWGSGPGSRPTAVEGLALGSSASSSSEPPQIIINPARQKMVQKLALYEDGALDSLQLLSSSSLPGLGLEQDRQGPEESDEFQS [IRAK1]”, the “solubility in G1/S (log2)” value in the data set on HeLa Kyoto [1] amounted to 0.247. Besides, the “solubility change mitosis (log2)” value in the data set with HeLa Kyoto [2] was 0.07.
